Results published in patent US20230151104A1 (REMD BIOTHERAPEUTICS, published 2023).
“And” between values parts separate entries of the source, which are not always exact repeats. Equal entries are not always repeated.

Experiments:
[1] = target: T1, human CXCR4 (hCXCR4), on CXCR4-positive cell line "CXCR4 E4" (human, UniProt P61073-2 2-356); experiment: FACS on CXCR4 E4 cells; serial dilution of Expi293F supernatant; anti-human IgG Alexa Fluor 647
T1 construct: FACS target: 'Positive cells lines (CXCR4 E4)'; also called chemokine receptor 4; HuCXCR4
Description: The DNA sequences encoding the chimeric antibody and humanized IgG heavy and light chains were synthesized and inserted into pCDNA3.4 vector to construct the expression plasmids of full-length IgGs. 18 humanized Abs were expressed in Expi293F cell culture, and then the cells were spun down. For affinity ranking, the supernatants were assayed by FACS against cell lines for the assessment of binding activity. Positive cells lines (CXCR4 E4) were cultured following the protocol and harvested by centrifugation. About 1×10⁵cells per well were washed with 1*PBS and incubated in a serial dilution of antibodies for 30 minutes at 4° C. After washing with PBS, secondary antibody [1 μg/ml Alexa Fluor® 647 AffiniPure Goat Anti-Human IgG (H+L)] was added to the cells and incubated in PBS for 30 minutes at 4° C. After washing with PBS, cells were analyzed for binding by using FACS Calibur (BD Bioscience, San Jose, Calif.) and Flowjo software. The antibodies were ranked by EC50.

[2] = target: T1, human CXCR4 (hCXCR4), on CXCR4-positive …; experiment: FACS binding confirmation with purified IgG on CXCR4-expressing cells

T1 sequence (P61073 other isoform, or with tags, fused parts or gaps): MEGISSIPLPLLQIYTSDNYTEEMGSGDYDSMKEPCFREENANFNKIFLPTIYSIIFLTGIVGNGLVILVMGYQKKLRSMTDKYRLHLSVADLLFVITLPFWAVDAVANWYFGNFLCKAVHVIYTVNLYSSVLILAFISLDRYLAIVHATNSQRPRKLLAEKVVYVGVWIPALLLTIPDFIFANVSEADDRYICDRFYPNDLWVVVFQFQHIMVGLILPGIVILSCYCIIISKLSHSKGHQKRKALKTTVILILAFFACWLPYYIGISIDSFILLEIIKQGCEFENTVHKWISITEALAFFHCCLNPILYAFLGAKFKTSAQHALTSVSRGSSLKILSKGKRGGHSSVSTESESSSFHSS

| Binder | EC50 [1] | EC50 [2] [µg/mL] |
| --- | --- | --- |
| humanized antibody VH4/VL2 (antibody, V domains shown, Expressed as full-length IgG in Expi293F cells and tested as supernatant) VH: QVQLVQSGAEVKKPGASVKMSCKASGYAFTDFHLNWVRQSHGQGLEWIGVINPYNGGTNYNQKFKDRVTLTVDTSISTAYMELSRLRSDDTAVYYCARYYASRYGYAMDYWGQGTLVTVSS VL: DIVMTQSPLSLPVTPGEPVSISCRSSKSLLHSNGNTYLYWFLQKPGQSPQLLIYRMSNLASGVPDRFSGSGSGTDFTLKISRVEAEDVGVYYCMQHVEYPLTFGGGTKLEIK | 1.99 µg/mL and 13.2 nM | – |
| humanized antibody VH3/VL3 (antibody, V domains shown, Expressed as full-length IgG in Expi293F cells and tested as supernatant) VH: QVQLVQSGAEVKKPGASVKVSCKASGYAFTDFHLNWVRQSHGQGLEWIGVINPYNGGTNYNQKFKDRVTLTVDTSISTAYMELSRLRSDDTAVYYCARYYASRYGYAMDYWGQGTLVTVSS VL: DIVMTQSALSLPVTPGEPVSISCRSSKSLLHSNGNTYLYWFLQKPGQSPQLLIYRMSNLASGVPDRFSGSGSGTDFTLKISRVEAEDVGVYYCMQHVEYPLTFGGGTKLEIK | 2.82 µg/mL and 18.8 nM | – |
| humanized antibody VH3/VL1 (antibody, V domains shown, Expressed as full-length IgG in Expi293F cells and tested as supernatant) VH: QVQLVQSGAEVKKPGASVKVSCKASGYAFTDFHLNWVRQSHGQGLEWIGVINPYNGGTNYNQKFKDRVTLTVDTSISTAYMELSRLRSDDTAVYYCARYYASRYGYAMDYWGQGTLVTVSS VL: DIVMTQSPLSLPVTPGEPASISCRSSKSLLHSNGNTYLYWYLQKPGQSPQLLIYRMSNLASGVPDRFSGSGSGTDFTLKISRVEAEDVGVYYCMQHVEYPLTFGGGTKLEIK | 4.18 µg/mL and 27.9 nM | – |
| humanized antibody VH3/VL2 (antibody, V domains shown, Expressed as full-length IgG in Expi293F cells and tested as supernatant) VH: QVQLVQSGAEVKKPGASVKVSCKASGYAFTDFHLNWVRQSHGQGLEWIGVINPYNGGTNYNQKFKDRVTLTVDTSISTAYMELSRLRSDDTAVYYCARYYASRYGYAMDYWGQGTLVTVSS VL: DIVMTQSPLSLPVTPGEPVSISCRSSKSLLHSNGNTYLYWFLQKPGQSPQLLIYRMSNLASGVPDRFSGSGSGTDFTLKISRVEAEDVGVYYCMQHVEYPLTFGGGTKLEIK | 2.93 µg/mL and 19.5 nM | – |
| humanized antibody VH4/VL1 (antibody, V domains shown, Expressed as full-length IgG in Expi293F cells and tested as supernatant) VH: QVQLVQSGAEVKKPGASVKMSCKASGYAFTDFHLNWVRQSHGQGLEWIGVINPYNGGTNYNQKFKDRVTLTVDTSISTAYMELSRLRSDDTAVYYCARYYASRYGYAMDYWGQGTLVTVSS VL: DIVMTQSPLSLPVTPGEPASISCRSSKSLLHSNGNTYLYWYLQKPGQSPQLLIYRMSNLASGVPDRFSGSGSGTDFTLKISRVEAEDVGVYYCMQHVEYPLTFGGGTKLEIK | 2.39 µg/mL and 16 nM | – |
| humanized antibody VH2/VL1 (antibody, V domains shown, Expressed as full-length IgG in Expi293F cells and tested as supernatant) VH: QVQLVQSGAEVKKPGASVKVSCKASGYAFTDFHLNWVRQSPGQGLEWIGVINPYNGGTNYNQKFKDRVTLTVDTSISTAYMELSRLRSDDTAVYYCARYYASRYGYAMDYWGQGTLVTVSS VL: DIVMTQSPLSLPVTPGEPASISCRSSKSLLHSNGNTYLYWYLQKPGQSPQLLIYRMSNLASGVPDRFSGSGSGTDFTLKISRVEAEDVGVYYCMQHVEYPLTFGGGTKLEIK | 5.37 µg/mL and 35.8 nM | – |
| humanized antibody VH2/VL2 (antibody, V domains shown, Expressed as full-length IgG in Expi293F cells and tested as supernatant) VH: QVQLVQSGAEVKKPGASVKVSCKASGYAFTDFHLNWVRQSPGQGLEWIGVINPYNGGTNYNQKFKDRVTLTVDTSISTAYMELSRLRSDDTAVYYCARYYASRYGYAMDYWGQGTLVTVSS VL: DIVMTQSPLSLPVTPGEPVSISCRSSKSLLHSNGNTYLYWFLQKPGQSPQLLIYRMSNLASGVPDRFSGSGSGTDFTLKISRVEAEDVGVYYCMQHVEYPLTFGGGTKLEIK | 4.82 µg/mL and 32.1 nM | – |
| humanized antibody VH2/VL3 (antibody, V domains shown, Expressed as full-length IgG in Expi293F cells and tested as supernatant) VH: QVQLVQSGAEVKKPGASVKVSCKASGYAFTDFHLNWVRQSPGQGLEWIGVINPYNGGTNYNQKFKDRVTLTVDTSISTAYMELSRLRSDDTAVYYCARYYASRYGYAMDYWGQGTLVTVSS VL: DIVMTQSALSLPVTPGEPVSISCRSSKSLLHSNGNTYLYWFLQKPGQSPQLLIYRMSNLASGVPDRFSGSGSGTDFTLKISRVEAEDVGVYYCMQHVEYPLTFGGGTKLEIK | 8.35 µg/mL and 55.7 nM | – |
| humanized IgG 2 (VH1/VL2) (antibody, Full-length humanized IgG; also called H1/L2) heavy: not shown light: DIVMTQSPLSLPVTPGEPVSISCRSSKSLLHSNGNTYLYWFLQKPGQSPQLLIYRMSNLASGVPDRFSGSGSGTDFTLKISRVEAEDVGVYYCMQHVEYPLTFGGGTKLEIKRTVAAPSVFIFPPSDEQLKSGTASVVCLLNNFYPREAKVQWKVDNALQSGNSQESVTEQDSKDSTYSLSSTLTLSKADYEKHKVYACEVTHQGLSSPVTKSFNRGEC | 2.19 µg/mL and 14.6 nM | 1.72 |
| humanized IgG 3 (VH1/VL3) (antibody, Full-length humanized IgG; also called H1/L3) heavy: not shown light: DIVMTQSALSLPVTPGEPVSISCRSSKSLLHSNGNTYLYWFLQKPGQSPQLLIYRMSNLASGVPDRFSGSGSGTDFTLKISRVEAEDVGVYYCMQHVEYPLTFGGGTKLEIKRTVAAPSVFIFPPSDEQLKSGTASVVCLLNNFYPREAKVQWKVDNALQSGNSQESVTEQDSKDSTYSLSSTLTLSKADYEKHKVYACEVTHQGLSSPVTKSFNRGEC | 2.27 µg/mL and 15.2 nM | 2.35 |
| humanized IgG 1 (VH1/VL1) (antibody, V domains shown, Full-length humanized IgG; also called H1/L1) VH: QVQLVQSGAEVKKPGASVKVSCKASGYAFTDFHLNWVRQAPGQGLEWMGVINPYNGGTNYNQKFKDRVTMTRDTSISTAYMELSRLRSDDTAVYYCARYYASRYGYAMDYWGQGTLVTVSS VL: DIVMTQSPLSLPVTPGEPASISCRSSKSLLHSNGNTYLYWYLQKPGQSPQLLIYRMSNLASGVPDRFSGSGSGTDFTLKISRVEAEDVGVYYCMQHVEYPLTFGGGTKLEIKR | 1.72 µg/mL and 11.5 nM | 1.6 |

Results, then the binder that gave them:

| EC50 [1] | EC50 [2] [µg/mL] | Binder |
| --- | --- | --- |
| 1.56 µg/mL and 10.4 nM | 1.8 | murine-human chimeric IgG1 derived from mAb 201D10A12C1 (A15) (antibody, V domains shown, also called Chimeric (VH/VL); 4 Chimeric (VH/VL)) VH: EVQLQQSGPVLVRPGASVKMSCKASGYAFTDFHLNWVKQSHGKSLEWIGVINPYNGGTNYNQKFKDKATLTVDKSSSTAYMELNRLTSEDSAVYYCARYYASRYGYAMDYWGQGTSVTVSS VL: DIVMTQAAPSVPVTPGESVSISCRSSKSLLHSNGNTYLYWFLQRPGQSPQLLIYRMSNLASGVPDRFSGSGSGTAFTLRISRVEAEDVGIYYCMQHVEYPLTFGAGTKLELKR |
| 0.375 µg/mL and 2.5 nM | – | humanized antibody VH5/VL1 (antibody, V domains shown, Expressed as full-length IgG in Expi293F cells and tested as supernatant) VH: QVQLVQSGAEVKKPGASVKMSCKASGYAFTDFHLNWVKQSHGQGLEWIGVINPYNGGTNYNQKFKDRVTLTVDTSISTAYMELSRLRSDDTAVYYCARYYASRYGYAMDYWGQGTLVTVSS VL: DIVMTQSPLSLPVTPGEPASISCRSSKSLLHSNGNTYLYWYLQKPGQSPQLLIYRMSNLASGVPDRFSGSGSGTDFTLKISRVEAEDVGVYYCMQHVEYPLTFGGGTKLEIK |
| 1.94 µg/mL and 13 nM | – | humanized antibody VH6/VL2 (antibody, V domains shown, Expressed as full-length IgG in Expi293F cells and tested as supernatant) VH: QVQLVQSGAEVKKPGASVKMSCKASGYAFTDFHLNWVKQSHGQGLEWIGVINPYNGGTNYNQKFKDRATLTVDTSISTAYMELSRLRSDDSAVYYCARYYASRYGYAMDYWGQGTLVTVSS VL: DIVMTQSPLSLPVTPGEPVSISCRSSKSLLHSNGNTYLYWFLQKPGQSPQLLIYRMSNLASGVPDRFSGSGSGTDFTLKISRVEAEDVGVYYCMQHVEYPLTFGGGTKLEIK |
| 2.86 µg/mL and 19.1 nM | – | humanized antibody VH6/VL3 (antibody, V domains shown, Expressed as full-length IgG in Expi293F cells and tested as supernatant) VH: QVQLVQSGAEVKKPGASVKMSCKASGYAFTDFHLNWVKQSHGQGLEWIGVINPYNGGTNYNQKFKDRATLTVDTSISTAYMELSRLRSDDSAVYYCARYYASRYGYAMDYWGQGTLVTVSS VL: DIVMTQSALSLPVTPGEPVSISCRSSKSLLHSNGNTYLYWFLQKPGQSPQLLIYRMSNLASGVPDRFSGSGSGTDFTLKISRVEAEDVGVYYCMQHVEYPLTFGGGTKLEIK |
| 1.93 µg/mL and 12.8 nM | – | humanized antibody VH5/VL3 (antibody, V domains shown, Expressed as full-length IgG in Expi293F cells and tested as supernatant) VH: QVQLVQSGAEVKKPGASVKMSCKASGYAFTDFHLNWVKQSHGQGLEWIGVINPYNGGTNYNQKFKDRVTLTVDTSISTAYMELSRLRSDDTAVYYCARYYASRYGYAMDYWGQGTLVTVSS VL: DIVMTQSALSLPVTPGEPVSISCRSSKSLLHSNGNTYLYWFLQKPGQSPQLLIYRMSNLASGVPDRFSGSGSGTDFTLKISRVEAEDVGVYYCMQHVEYPLTFGGGTKLEIK |
| 1.97 µg/mL and 13.2 nM | – | humanized antibody VH4/VL3 (antibody, V domains shown, Expressed as full-length IgG in Expi293F cells and tested as supernatant) VH: QVQLVQSGAEVKKPGASVKMSCKASGYAFTDFHLNWVRQSHGQGLEWIGVINPYNGGTNYNQKFKDRVTLTVDTSISTAYMELSRLRSDDTAVYYCARYYASRYGYAMDYWGQGTLVTVSS VL: DIVMTQSALSLPVTPGEPVSISCRSSKSLLHSNGNTYLYWFLQKPGQSPQLLIYRMSNLASGVPDRFSGSGSGTDFTLKISRVEAEDVGVYYCMQHVEYPLTFGGGTKLEIK |
| 1.45 µg/mL and 9.65 nM | – | humanized antibody VH6/VL1 (antibody, V domains shown, Expressed as full-length IgG in Expi293F cells and tested as supernatant) VH: QVQLVQSGAEVKKPGASVKMSCKASGYAFTDFHLNWVKQSHGQGLEWIGVINPYNGGTNYNQKFKDRATLTVDTSISTAYMELSRLRSDDSAVYYCARYYASRYGYAMDYWGQGTLVTVSS VL: DIVMTQSPLSLPVTPGEPASISCRSSKSLLHSNGNTYLYWYLQKPGQSPQLLIYRMSNLASGVPDRFSGSGSGTDFTLKISRVEAEDVGVYYCMQHVEYPLTFGGGTKLEIK |
| 1.61 µg/mL and 10.7 nM | – | humanized antibody VH5/VL2 (antibody, V domains shown, Expressed as full-length IgG in Expi293F cells and tested as supernatant) VH: QVQLVQSGAEVKKPGASVKMSCKASGYAFTDFHLNWVKQSHGQGLEWIGVINPYNGGTNYNQKFKDRVTLTVDTSISTAYMELSRLRSDDTAVYYCARYYASRYGYAMDYWGQGTLVTVSS VL: DIVMTQSPLSLPVTPGEPVSISCRSSKSLLHSNGNTYLYWFLQKPGQSPQLLIYRMSNLASGVPDRFSGSGSGTDFTLKISRVEAEDVGVYYCMQHVEYPLTFGGGTKLEIK |
